One block for each binder: values may come before it.
Tests used:
[1] = biological target: the molecule itself; experiment: tryptophan fluorescence emission maximum (332 nm), peptide free in buffer; self-association
[2] = biological target: T1, LCAT (purified from human plasma) (human, UniProt P04180 25-440); experiment: cell-based or functional assay
T1 sequence (looked up): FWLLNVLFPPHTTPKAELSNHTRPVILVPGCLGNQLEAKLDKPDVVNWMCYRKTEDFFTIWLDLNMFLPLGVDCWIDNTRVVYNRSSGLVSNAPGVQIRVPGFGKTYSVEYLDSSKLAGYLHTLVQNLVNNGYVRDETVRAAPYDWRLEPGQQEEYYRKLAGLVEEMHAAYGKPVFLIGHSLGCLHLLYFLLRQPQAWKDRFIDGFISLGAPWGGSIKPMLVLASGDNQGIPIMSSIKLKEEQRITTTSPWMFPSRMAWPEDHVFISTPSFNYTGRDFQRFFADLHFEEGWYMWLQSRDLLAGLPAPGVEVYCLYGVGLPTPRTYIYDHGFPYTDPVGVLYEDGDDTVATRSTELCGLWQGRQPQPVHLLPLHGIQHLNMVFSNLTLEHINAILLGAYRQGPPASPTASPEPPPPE

B1: peptide 15 (peptide)
peptide: PVLDLFRELWNELLEALKQKLK
notes: peptide 4 containing a Trp residue at position 10
binding result [1]: binds

ACTIVITY (%) LCAT [2]: 63%
Binder: PVLDLFRELGNELLEALKQKLK [peptide 9]

Source: patent US20050215467A1 (published 2005)
